Earlier results on 1 substance are cited in article PMC3432731.

This data set has as its target Cyclin A (Homo sapiens) (UniProt P20248).
UniProt P20248, sequence (P20248 whole entry): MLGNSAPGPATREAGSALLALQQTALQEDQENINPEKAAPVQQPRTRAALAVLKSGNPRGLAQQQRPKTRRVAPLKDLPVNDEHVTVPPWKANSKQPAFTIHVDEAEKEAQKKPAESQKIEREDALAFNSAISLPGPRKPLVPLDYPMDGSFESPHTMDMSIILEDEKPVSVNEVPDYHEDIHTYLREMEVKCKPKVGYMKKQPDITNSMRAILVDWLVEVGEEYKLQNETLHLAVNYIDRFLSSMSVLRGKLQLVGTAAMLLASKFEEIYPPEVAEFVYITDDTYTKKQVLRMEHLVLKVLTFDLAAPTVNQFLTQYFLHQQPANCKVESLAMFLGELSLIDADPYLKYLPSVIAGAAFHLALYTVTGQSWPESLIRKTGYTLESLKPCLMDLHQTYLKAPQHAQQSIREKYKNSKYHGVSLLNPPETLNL

What is called Kd is a measure of binding affinity in units of concentration. Consider p27 (from UniProt P46527), for which the Kd was 25 nM.
